The text below walks through data of article PMC7547085, “Specific and direct modulation of the interaction between adhesion GPCR GPR56/ADGRG1 and tissue transglutaminase 2 using synthetic ligands” (Scientific Reports, 2020).

The chains are these.
B1: mouse full-length GPR56 (GPR56 FL), wild type, on HEK293T cells [mouse] / mouse tissue transglutaminase 2 C-terminal D3D4 domains (mTG2 D3D4) [modified: biotin on the AVI-tag; biotin on the AVI-tag] [mouse] (parent)
chain 1: TGVAMRIRVGDSMSMGNDFDVFAHIGNDTSETRECRLLLCARTVSYNGVLGPECGTEDINLTLDPYSENSIPLRILYEKYSGCLTESNLIKVRGLLIEPAANSYLLAERDLYLENPEIKIRVLGEPKQNRKLVAEVSLKNPLSDPLYDCIFTVEGAGLTKEQKSVEVSDPVPAGDLVKARVDLFPTDIGLHKLVVNFQCDKLKSVKGYRNVIIGPA
chain 2: GSPREDFRFCGQRNQTQQSTLHYDQSSEPHIFVWNTEETLTIRAPFLAAPDIPRFFPEPRGLYHFCLYWSRHTGRLHLRYGKHDYLLSSQASRLLCFQKQEQSLKQGAPLIATSVSSWQIPQNTSLPGAPSFIFSFHNAPHKVSHNASVDMCDLKKELQQLSRYLQHPQKAAKRPTAAFISQQLQSLESKLTSVSFLGDTLSFEEDRVNATVWKLPPTAGLEDLHIHSQKEEEQSEVQAYSLLLPRAVFQQTRGRRRDDAKRLLVVDFSSQALFQDKNSSQVLGEKVLGIVVQNTKVTNLSDPVVLTFQHQPQPKNVTLQCVFWVEDPASSSTGSWSSAGCETVSRDTQTSCLCNHLTYFAVLMVSSTEVEATHKHYLTLLSYVGCVISALACVFTIAAYLCSRRKSRDYTIKVHMNLLSAVFLLDVSFLLSEPVALTGSEAACRTSAMFLHFSLLACLSWMGLEGYNLYRLVVEVFGTYVPGYLLKLSIVGWGFPVFLVTLVALVDVNNYGPIILAVRRTPERVTYPSMCWIRDSLVSYVTNLGLFSLVFLFNLAMLATMVVQILRLRPHSQNWPHVLTLLGLSLVLGLPWALVFFSFASGTFQLVILYLFSIITSFQGFLIFLWYWSMRFQAQGGPSPLKNNSDSAKLPISSGSTSSSRI

The variants in the test derive from B1. The test can be described thus: flow cytometry on cells. The settings on record: with mouse tissue transglutaminase 2 C-terminal D3D4 domains (mTG2 D3D4) [modified: biotin on the AVI-tag, 5 nM TG2 D3D4 (tetramerized), GPR56 FL constructs expressed on HEK293T cells, n = 3, parent: 1, read off a plot. (In general: A flow cytometer gives signals particle by particle.)
Take chain 2 S125A: the ratio to parent was determined as 8.7.

On to chain 2 L62D, for which the ratio to parent was 0.21. Consider chain 2 H64A Y68A S125A, for which the ratio to parent was found to be 4.1.

Regarding chain 2 L62D S125A, the ratio to parent worked out at 0.33. For chain 2 H64A Y68A R79D, the ratio to parent came out at 0.2.

As to chain 2 H64A, the ratio to parent came to 0.64. In the case of chain 2 H64A S125A it was 6.6; in that of chain 2 Y68A, 0.33. In the case of chain 2 H64A Y68A it was 0.22.
